± gives the standard deviation of the averaged measurements.
What was measured:
Saccharomyces cerevisiae [1] = assay: protein stability index of tFT-peptide fusion (C-terminal peptide) (PSI (0-1 scale)); higher = more stable (slower turnover)
Description: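 MPS profiling in S. cerevisiae of the tFT-X12 degron library: putative degron peptides plus stable controls, 12 aa, fused to the C-terminus of a sfGFP-mCherry timer. Cells are FACS-sorted into 8 mCherry/sfGFP bins and deep-sequenced. PSI runs from 0 (unstable) to 1 (stable). Backgrounds are wild type, das1Δ and doa10Δ at 30 °C, and wild type, das1Δ, cdc34-1 and cdc53-1 at 37 °C; 2-3 technical replicates each.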

Saccharomyces cerevisiae [2] = assay: as above; conditions: genetic background: wild type; temperature: 30 C
[3] = genetic background: cdc34-1, temperature: 37 C
[4] = genetic background: cdc53-1, temperature: 37 C
[5] = genetic background: das1 deletion, temperature: 30 C
[6] = genetic background: das1 deletion, temperature: 37 C
[7] = genetic background: doa10 deletion, temperature: 30 C
[8] = genetic background: wild type, temperature: 30 C
[9] = genetic background: wild type, temperature: 37 C
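Note: PSI is a weighted mean of sequencing reads over stability bins, variants kept only with over 10 reads, mCherry proximal and sfGFP distal, peptide attached via GGGS linker.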

Sequence	protein stability index (Saccharomyces cerevisiae [1]; [3])	protein stability index (Saccharomyces cerevisiae [1]; [4])	protein stability index (Saccharomyces cerevisiae [1]; [5])	protein stability index (Saccharomyces cerevisiae [1]; [6])	protein stability index (Saccharomyces cerevisiae [1]; [7])	protein stability index (Saccharomyces cerevisiae [1]; [8])	protein stability index (Saccharomyces cerevisiae [1]; [9])	protein stability index (Saccharomyces cerevisiae [2])
LYYSVIFLFLSW	0.255 ± 0.0028	0.306 ± 0.023	0.232 ± 0.033	0.371 ± 0.016	0.272 ± 0.036	0.208 ± 0.026	0.334 ± 0.033	0.339 ± 0.047
MACLRLTVYVMG	0.0763 ± 0.013	0.0769 ± 0.045	0.135 ± 0.031	0.2187 ± 0.0016	0.088 ± 0.034	0.13 ± 0.026	0.202 ± 0.0036	0.283 ± 0.017
MALAVRVVACGA	0.125 ± 0.032	0.1647 ± 0.0014	0.196 ± 0.026	0.281 ± 0.0065	0.157 ± 0.012	0.19 ± 0.024	0.236 ± 0.0084	0.261 ± 0.0094
MFLHLGLFIMSH	0.348 ± 0.011	0.4065 ± 0.0032	0.303 ± 0.025	0.457 ± 0.0099	0.2787 ± 0.0023	0.306 ± 0.014	0.435 ± 0.006	0.382 ± 0.037
MFWKFVFRGFWF	0.694 ± 0.064	0.739 ± 0.008	0.641 ± 0.034	0.7791 ± 0.0044	0.221 ± 0.0052	0.259 ± 0.019	0.4748 ± 0.0044	0.338 ± 0.018
MMEMMTKSNRIP	0.683 ± 0.029	0.737 ± 0.015	0.63 ± 0.016	0.709 ± 0.04	0.4 ± 0.02	0.446 ± 0.074	0.639 ± 0.016	0.517 ± 0.025
MQFVALFLVGLL	0.465 ± 0.041	0.5087 ± 0.001	0.346 ± 0.049	0.5245 ± 0.0022	0.308 ± 0.0095	0.354 ± 0.023	0.509 ± 0.0056	0.465 ± 0.0047
MRGPAWVCVLYS	0.637 ± 0.026	0.711 ± 0.012	0.59 ± 0.044	0.69291 ± 0.00012	0.284 ± 0.0086	0.339 ± 0.023	0.5348 ± 0.0048	0.485 ± 0.028
MSVLAFVCCLSG	0.3532 ± 0.0026	0.311 ± 0.0052	0.289 ± 0.033	0.393 ± 0.022	0.2478 ± 0.0014	0.268 ± 0.027	0.3585 ± 0.0029	0.336 ± 0.0033
NDVGGYFYVCSE	0.682 ± 0.013	0.749 ± 0.013	0.641 ± 0.012	0.7142 ± 0.0056	0.63 ± 0.011	0.648 ± 0.024	0.735 ± 0.023	0.578 ± 0.12
NHKTIRIQNKSI	0.67783 ± 7.8e-06	0.775 ± 0.045	0.64 ± 0.034	0.699 ± 0.0092	0.146 ± 0.0041	0.143 ± 0.051	0.424 ± 0.044	0.302 ± 0.031
NKYSMQNVLKSF	0.7 ± 0.034	0.711 ± 0.02	0.632 ± 0.025	0.752 ± 0.017	0.249 ± 0.06	0.323 ± 0.025	0.552 ± 0.049	0.418 ± 0.023
NLDRYYKKIKLI	0.338 ± 0.025	0.69 ± 0.013	0.689 ± 0.063	0.733 ± 0.019	0.052 ± 0.03	0.0742 ± 0.029	0.0913 ± 0.021	0.15 ± 0.025
NLSYFFFSVLFF	0.552 ± 0.069	0.562 ± 0.018	0.506 ± 0.033	0.693 ± 0.067	0.62 ± 0.022	0.545 ± 0.068	0.612 ± 0.038	0.499 ± 0.032
NSCHFYSRFYLA	0.651 ± 0.012	0.7421 ± 0.00091	0.657 ± 0.022	0.70341 ± 0.00042	0.243 ± 0.0054	0.3 ± 0.019	0.5196 ± 0.00096	0.3452 ± 0.0025
NVALHPGVPRKC	0.656 ± 0.038	0.715 ± 0.018	0.677 ± 0.026	0.75 ± 0.031	0.664 ± 0.018	0.649 ± 0.019	0.702 ± 0.019	0.341 ± 0.036
NYCLYFKLSRLS	0.62 ± 0.029	0.691 ± 0.016	0.603 ± 0.015	0.655 ± 0.021	0.221 ± 0.02	0.25 ± 0.017	0.429 ± 0.011	0.3897 ± 0.00059
NYVFALFYMVVA	0.196 ± 0.022	0.311 ± 0.031	0.224 ± 0.033	0.3449 ± 0.0014	0.19 ± 0.0089	0.217 ± 0.025	0.345 ± 0.03	0.254 ± 0.0054
PALPTPPVSPSP	0.613 ± 0.092	0.667 ± 0.11	0.256 ± 0.025	0.465 ± 0.0057	0.243 ± 0.014	0.265 ± 0.022	0.43648 ± 0.00011	0.333 ± 0.013
PCVPRLLPLQLS	0.628 ± 0.019	0.795 ± 0.028	0.6546 ± 0.005	0.758 ± 0.03	0.216 ± 0.0089	0.233 ± 0.0069	0.363 ± 0.0044	0.252 ± 0.03
PCYRPPLPALLS	0.613 ± 0.013	0.69 ± 0.0093	0.62 ± 0.036	0.705 ± 0.024	0.395 ± 0.024	0.43 ± 0.03	0.568 ± 0.033	0.501 ± 0.013
PDPIFGEWVYMV	0.57943 ± 4.3e-05	0.72148 ± 0.00041	0.644 ± 0.0072	0.7555 ± 0.0066	0.249 ± 0.00039	0.26 ± 0.02	0.384 ± 0.0032	0.327 ± 0.0015
PFAFLSLVLLLP	0.51 ± 0.017	0.5103 ± 0.0028	0.418 ± 0.029	0.5176 ± 0.0043	0.383 ± 0.027	0.35 ± 0.023	0.482 ± 0.02	0.418 ± 0.0045
PFFFIFVLPFVF	0.456 ± 0.045	0.51212 ± 0.00041	0.366 ± 0.024	0.524 ± 0.0093	0.318 ± 0.027	0.309 ± 0.041	0.465 ± 0.0074	0.402 ± 0.011
PFLLLVSPISSC	0.416 ± 0.037	0.403 ± 0.01	0.301 ± 0.028	0.4637 ± 0.0012	0.271 ± 0.0057	0.302 ± 0.028	0.445 ± 0.014	0.433 ± 0.011
PGFCFFLYYCMM	0.4815 ± 0.0025	0.558 ± 0.056	0.416 ± 0.031	0.562 ± 0.011	0.368 ± 0.0053	0.412 ± 0.018	0.5331 ± 0.00095	0.49 ± 0.034
PHGASLCVPPSP	0.675 ± 0.025	0.739 ± 0.0082	0.647 ± 0.0089	0.7271 ± 0.0072	0.645 ± 0.02	0.651 ± 0.014	0.69931 ± 2.1e-06	0.491 ± 0.0074
PHGLKPHCPTPS	0.685 ± 0.026	0.745 ± 0.021	0.654 ± 0.016	0.7368 ± 0.0034	0.674 ± 0.046	0.677 ± 0.01	0.73 ± 0.042	0.728 ± 0.02
PLRVFFLVAFCL	0.451 ± 0.009	0.4799 ± 0.0037	0.372 ± 0.024	0.535 ± 0.015	0.318 ± 0.026	0.326 ± 0.05	0.471 ± 0.013	0.383 ± 0.0073
PLSNLCRVLTFI	0.557 ± 0.078	0.639 ± 0.0012	0.575 ± 0.03	0.6394 ± 0.0024	0.361 ± 0.0071	0.369 ± 0.015	0.526 ± 0.0056	0.4608 ± 0.0029
